Results on three proteins are retold here after article PMC4231051, “Protein Thermal Stability Enhancement by Designing Salt Bridges: A Combined Computational and Experimental Study” (PLoS ONE, 2014).

The data set concerns the molecule itself. Kind of data set: SEC; gel filtration during purification (HiLoad 26/60 Superdex 200 prep-grade), 50 mM citrate phosphate buffer, pH 7; data not shown.

Residue numbers refer to the chain shown, from its start. Numbers in names are those of the source.

B1: β-glucosidase A (BglA) from Bacillus polymyxa, wild type (enzyme)
chain: TIFQFPQDFMWGTATAAYQIEGAYQEDGRGLSIWDTFAHTPGKVFNGDNGNVACDSYHRYEEDIRLMKELGIRTYRFSVSWPRIFPNGDGEVNQEGLDYYHRVVDLLNDNGIEPFCTLYHWDLPQALQDAGGWGNRRTIQAFVQFAETMFREFHGKIQHWLTFNEPWCIAFLSNMLGVHAPGLTNLQTAIDVGHHLLVAHGLSVRRFRELGTSGQIGIAPNVSWAVPYSTSEEDKAACARTISLHSDWFLQPIYQGSYPQFLVDWFAEQGATVPIQDGDMDIIGEPIDMIGINYYSMSVNRFNPEAGFLQSEEINMGLPVTDIGWPVESRGLYEVLHYLQKYGNIDIYITENGACINDEVVNGKVQDDRRISYMQQHLVQVHRTIHDGLHVKGYMAWSLLDNFEWAEGYNMRFGMIHVDFRTQVRTPKESYYWYRNVVSNNWLETRR
notes: β-glucosidase A (BglA, EC 3.2.1.21) from Bacillus polymyxa, family 1 glycosyl hydrolase; Plasmid pBglA; its vector and construct limits are not described; also called wild type enzyme; source: E. coli BL21 Star (DE3), purified (HisTrap, thrombin, HisTrap, gel filtration on Superdex 200)
Usually stoichiometry N stands for the number of molecules, sites or subunits per partner or assembly. Consider B1, for which the “stoichiometry N” value was determined as 8.

B2: β-glucosidase A (BglA) from Bacillus polymyxa, N437D mutant (enzyme)
chain: B1 chain with N436D
notes: β-glucosidase A (BglA, EC 3.2.1.21) from Bacillus polymyxa with N437D, made by site-directed mutagenesis of pBglA; Same construct as m1 apart from the mutation; source: E. coli BL21 Star (DE3), purified (HisTrap, thrombin, HisTrap, gel filtration on Superdex 200)
In the case of B2, the “stoichiometry N” value turned out to be 4.

B3: β-glucosidase A (BglA) from Bacillus polymyxa, N437E mutant (enzyme)
chain: B1 chain with N436E
notes: β-glucosidase A (BglA, EC 3.2.1.21) from Bacillus polymyxa with N437E, made by site-directed mutagenesis of pBglA; Same construct as m1 apart from the mutation; source: E. coli BL21 Star (DE3), purified (HisTrap, thrombin, HisTrap, gel filtration on Superdex 200)
For the protein B3, the “stoichiometry N” value was 4.
